What was measured:
[1] = target: T1, C5 (Homo sapiens, UniProt P01031); settings: C5 coated directly and biotinylated C5 captured on streptavidin; OD 630 nm
[2] = target: C3 protein (Homo sapiens, UniProt P01024); settings: C3 coated directly and biotinylated C3 captured on streptavidin; OD 630 nm
[3] = target: T1, C5; assay: Biacore (SPR) single-cycle kinetics on immobilised C5; format: binding; settings: C5 binding, Biacore, n = 3 independent experiments; for Mean Koff: in 1/s
Description: Binding to C5 was measured using surface plasmon resonance (SPR) single-cycle kinetics as described below.
Biacore single-cycle kinetics. Using a Biacore 8K (GE Healthcare), C5 was immobilized on a CM5 chip by amine coupling. Flow cells were activated using EDC/NHS (flow rate, 10 μL/min; contact time, 30 s). C5, at 1 μg/mL in pH 4.5 Sodium-acetate buffer, was immobilized on flow cell two only (flow rate, 10 μL/min; contact time, 420 s). Finally, ethanolamine was applied to both flow cells (flow rate, 10 μL/min; contact time, 420 s). A final immobilization level of approximately 2,000 response units was obtained.
Single-cycle kinetics were measured using titrations in HBS-EP buffer. A high flow rate of 40 μL/min was used, with a contact time of 230 s and a dissociation time of 900 s. Binding to the reference surface was subtracted, and the data were fitted to a single-site binding model using Biacore evaluation software.
We measured individual rate constants (kon and koff) and equilibrium dissociation constants (KD) for knob domain peptides binding to C5 by the Biacore single-cycle kinetics method described above.
We used SPR single cycle kinetics to measure binding to human C5 protein.

[4] = target: human complement component C3 (Homo sapiens, UniProt P01024); assay: SPR binding / counter screen on complement component C3; settings: Biacore, n = 3 independent experiments
Text: The PGT121-knob domain fusion proteins were counter screened for binding to human complement component C3. C3 is the closest human homologue to C5, sharing a conserved fold and a sequence homology of 26.5%.
We measured binding to C3 and C5 by SPR multi-cycle kinetics and we report full binding kinetics and equilibrium dissociation constants (KD) for binding to both proteins.

[5] = target: T1, C5; assay: Monoclonal phage screening ELISA, human C5; format: binding; settings: anti-C5 ultralong CDR-H3; binder = OD>0.2 AU
Description: (§1) For the C5 libraries, a single round of enrichment was performed with either human or rat C5 protein. […] Phage were blocked for 30 minutes. Biotinylated antigen was added to the blocked phage at a concentration of 100 nM and incubated at room temperature with mixing.
(§2) Colonies were picked into a 96-well culture plate containing selective medium 2TY supplemented with 1% Glucose and 100 μg/ml Carbenicillin and was incubated at 37° C. until wells reached mid-log phase of growth prior to addition of M13K07 helper phage. The block was incubated without shaking for 1 hour to achieve infection and phage production using continued culture in selective media supplemented with 50 μg/ml Kanamycin and 100 μg/ml Carbenicillin.
Binding to antigen was assessed by monoclonal phage ELISA, 96-well flat bottom Nunc MaxiSorp plates (Thermofisher) were coated with a 2.5 μg/ml solution of human, mouse, or rat serum albumin, human C5 or mouse C5 diluted with PBS, and left overnight at 4° C. Negative control plate and Anti-myc tag plate were also prepared.
Monoclonal phage rescue supernatants were blocked with an equal volume of a 2% milk (w/v) in PBS, for serum albumin proteins, or 2% BSA and 2% milk (w/v) in PBS solution. The coating solution was removed from coated Nunc plates and each plate was blocked with 1% BSA in PBS (for C5 libraries) or 1% milk powder (for albumin library). Both phage and Nunc plates were blocked for 1 hour at room temperature. Nunc plates were washed using a 96-well microplate washer (BioTek) with a PBS solution contain 0.1% Tween20 (Sigma Aldrich). 100 of blocked phage solution was added to each well of Nunc MaxiSorp plate and left shaking at room temperature for 1 hour. Plates were washed and dried as previously described. 100 of an Anti-M13-Horse radish peroxidase conjugated antibody (GE Healthcare) diluted (1:5,000) in a 1% BSA or milk solution was added to each well and left shaking at room temperature for 1 hour. Plates were washed again and 50 μL of TMB solution (Merck Millipore) was added to each well. Plates were left shaking for 10 minutes. Absorbance was measured at 630 nm and 490 nm. Binding signals were obtained where Absorbance at 630 nm was >3-times the signal upon irrelevant antigen.
By monoclonal phage ELISA the following ultralong CDR-H3 sequences were identified as binders (OD>0.2 AU): […]

[6] = target: rat C5 protein (Rattus norvegicus, UniProt P08650); assay: Monoclonal phage screening ELISA, rat C5; format: binding; settings: anti-C5 ultralong CDR-H3; binder = OD>0.2 AU
Description: as §1, §2
[…] Negative control plate and Anti-myc tag plate were also prepared.
Monoclonal phage rescue supernatants were blocked with an equal volume of a 2% milk (w/v) in PBS, for serum albumin proteins, or 2% BSA and 2% milk (w/v) in PBS solution. The coating solution was removed from coated Nunc plates and each plate was blocked with 1% BSA in PBS (for C5 libraries) or 1% milk powder (for albumin library). Both phage and Nunc plates were blocked for 1 hour at room temperature. […] Absorbance was measured at 630 nm and 490 nm. Binding signals were obtained where Absorbance at 630 nm was >3-times the signal upon irrelevant antigen. […]

Sequence of human complement component C3 (P01024 23-1663): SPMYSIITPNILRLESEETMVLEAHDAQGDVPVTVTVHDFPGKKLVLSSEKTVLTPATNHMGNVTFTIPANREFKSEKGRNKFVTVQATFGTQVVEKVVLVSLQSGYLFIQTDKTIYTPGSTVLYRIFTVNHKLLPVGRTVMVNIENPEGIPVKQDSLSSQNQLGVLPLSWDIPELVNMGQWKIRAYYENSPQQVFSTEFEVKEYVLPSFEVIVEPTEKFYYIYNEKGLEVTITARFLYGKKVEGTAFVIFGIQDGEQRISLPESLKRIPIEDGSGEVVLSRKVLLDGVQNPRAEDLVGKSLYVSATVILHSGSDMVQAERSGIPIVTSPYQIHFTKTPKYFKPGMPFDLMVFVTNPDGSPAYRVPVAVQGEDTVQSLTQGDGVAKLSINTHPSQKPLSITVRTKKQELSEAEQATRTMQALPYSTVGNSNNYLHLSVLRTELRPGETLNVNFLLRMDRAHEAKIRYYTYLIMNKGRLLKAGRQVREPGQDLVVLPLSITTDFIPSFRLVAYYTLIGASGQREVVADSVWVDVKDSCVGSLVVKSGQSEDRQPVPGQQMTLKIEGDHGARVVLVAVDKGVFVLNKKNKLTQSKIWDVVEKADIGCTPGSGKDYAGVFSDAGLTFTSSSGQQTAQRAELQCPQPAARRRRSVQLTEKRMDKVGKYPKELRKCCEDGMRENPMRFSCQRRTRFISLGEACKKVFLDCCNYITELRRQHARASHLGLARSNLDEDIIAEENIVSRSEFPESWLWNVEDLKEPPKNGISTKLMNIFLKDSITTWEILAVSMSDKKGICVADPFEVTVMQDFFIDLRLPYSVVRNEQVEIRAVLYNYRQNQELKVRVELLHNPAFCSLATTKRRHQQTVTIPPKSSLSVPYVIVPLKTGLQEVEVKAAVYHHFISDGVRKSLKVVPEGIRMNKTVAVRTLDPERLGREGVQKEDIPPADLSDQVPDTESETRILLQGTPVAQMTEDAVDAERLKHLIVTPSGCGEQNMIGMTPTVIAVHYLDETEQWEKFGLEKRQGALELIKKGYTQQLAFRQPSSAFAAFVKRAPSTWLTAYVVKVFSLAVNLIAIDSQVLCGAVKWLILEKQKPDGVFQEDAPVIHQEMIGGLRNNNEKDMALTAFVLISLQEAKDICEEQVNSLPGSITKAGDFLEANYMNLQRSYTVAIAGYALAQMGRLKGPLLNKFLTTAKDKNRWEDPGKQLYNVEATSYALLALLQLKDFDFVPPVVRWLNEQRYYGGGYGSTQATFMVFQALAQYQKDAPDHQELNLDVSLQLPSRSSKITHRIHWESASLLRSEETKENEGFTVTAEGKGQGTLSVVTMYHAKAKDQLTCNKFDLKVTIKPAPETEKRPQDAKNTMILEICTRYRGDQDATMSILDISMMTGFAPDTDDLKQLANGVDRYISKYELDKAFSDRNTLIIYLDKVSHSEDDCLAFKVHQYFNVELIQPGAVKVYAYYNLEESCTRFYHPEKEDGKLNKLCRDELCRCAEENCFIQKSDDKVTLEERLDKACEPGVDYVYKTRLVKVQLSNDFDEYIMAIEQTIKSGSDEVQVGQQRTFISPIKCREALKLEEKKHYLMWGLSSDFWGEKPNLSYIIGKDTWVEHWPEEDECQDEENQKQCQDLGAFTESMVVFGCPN
T1 sequence (P01031 19-1676): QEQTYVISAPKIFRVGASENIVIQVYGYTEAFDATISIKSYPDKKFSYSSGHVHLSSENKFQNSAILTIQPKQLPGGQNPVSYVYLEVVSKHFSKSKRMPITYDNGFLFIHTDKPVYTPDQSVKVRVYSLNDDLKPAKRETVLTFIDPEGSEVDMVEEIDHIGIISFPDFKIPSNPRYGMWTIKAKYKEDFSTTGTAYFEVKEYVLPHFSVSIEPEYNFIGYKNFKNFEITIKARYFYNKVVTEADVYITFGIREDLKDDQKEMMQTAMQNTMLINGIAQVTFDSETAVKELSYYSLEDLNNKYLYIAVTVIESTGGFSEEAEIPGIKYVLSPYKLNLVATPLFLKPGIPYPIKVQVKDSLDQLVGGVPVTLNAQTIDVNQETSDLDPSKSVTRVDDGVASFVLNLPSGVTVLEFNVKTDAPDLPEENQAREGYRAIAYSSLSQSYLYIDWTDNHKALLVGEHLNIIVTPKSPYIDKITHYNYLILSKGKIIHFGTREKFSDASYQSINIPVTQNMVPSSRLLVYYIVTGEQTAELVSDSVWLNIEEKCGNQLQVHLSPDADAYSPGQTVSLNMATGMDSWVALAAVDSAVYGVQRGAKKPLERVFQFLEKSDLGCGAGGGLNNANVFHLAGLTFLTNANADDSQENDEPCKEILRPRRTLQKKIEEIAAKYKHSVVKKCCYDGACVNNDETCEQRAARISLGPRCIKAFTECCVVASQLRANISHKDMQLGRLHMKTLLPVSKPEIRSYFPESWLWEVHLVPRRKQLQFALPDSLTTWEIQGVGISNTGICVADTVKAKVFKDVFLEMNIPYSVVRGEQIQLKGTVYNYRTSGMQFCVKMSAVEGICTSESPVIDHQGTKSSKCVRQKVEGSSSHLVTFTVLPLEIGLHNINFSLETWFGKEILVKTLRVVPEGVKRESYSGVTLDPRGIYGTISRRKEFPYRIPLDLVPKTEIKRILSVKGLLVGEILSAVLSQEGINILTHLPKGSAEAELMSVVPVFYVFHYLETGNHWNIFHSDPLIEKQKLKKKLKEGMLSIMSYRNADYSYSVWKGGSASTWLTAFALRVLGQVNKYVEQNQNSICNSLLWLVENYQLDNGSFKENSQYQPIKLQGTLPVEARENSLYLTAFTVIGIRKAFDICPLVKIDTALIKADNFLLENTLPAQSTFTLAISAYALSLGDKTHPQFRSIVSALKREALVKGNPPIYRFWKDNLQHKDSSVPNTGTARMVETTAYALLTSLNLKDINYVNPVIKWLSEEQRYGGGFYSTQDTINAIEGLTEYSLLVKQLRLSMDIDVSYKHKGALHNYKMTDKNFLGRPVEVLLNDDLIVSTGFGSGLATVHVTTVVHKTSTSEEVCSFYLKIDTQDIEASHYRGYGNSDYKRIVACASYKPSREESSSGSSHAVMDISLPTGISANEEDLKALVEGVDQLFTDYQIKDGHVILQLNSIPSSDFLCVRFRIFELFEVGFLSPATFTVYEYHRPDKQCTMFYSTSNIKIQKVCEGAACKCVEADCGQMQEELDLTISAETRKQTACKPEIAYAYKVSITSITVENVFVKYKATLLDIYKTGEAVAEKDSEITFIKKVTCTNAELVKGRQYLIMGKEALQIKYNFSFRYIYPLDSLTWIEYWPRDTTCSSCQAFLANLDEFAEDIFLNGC
Sequence of C3 protein (P01024 23-1663): as the sequence (P01024 23-1663) above
Sequence of rat C5 protein (P08650 19-674 limits assumed): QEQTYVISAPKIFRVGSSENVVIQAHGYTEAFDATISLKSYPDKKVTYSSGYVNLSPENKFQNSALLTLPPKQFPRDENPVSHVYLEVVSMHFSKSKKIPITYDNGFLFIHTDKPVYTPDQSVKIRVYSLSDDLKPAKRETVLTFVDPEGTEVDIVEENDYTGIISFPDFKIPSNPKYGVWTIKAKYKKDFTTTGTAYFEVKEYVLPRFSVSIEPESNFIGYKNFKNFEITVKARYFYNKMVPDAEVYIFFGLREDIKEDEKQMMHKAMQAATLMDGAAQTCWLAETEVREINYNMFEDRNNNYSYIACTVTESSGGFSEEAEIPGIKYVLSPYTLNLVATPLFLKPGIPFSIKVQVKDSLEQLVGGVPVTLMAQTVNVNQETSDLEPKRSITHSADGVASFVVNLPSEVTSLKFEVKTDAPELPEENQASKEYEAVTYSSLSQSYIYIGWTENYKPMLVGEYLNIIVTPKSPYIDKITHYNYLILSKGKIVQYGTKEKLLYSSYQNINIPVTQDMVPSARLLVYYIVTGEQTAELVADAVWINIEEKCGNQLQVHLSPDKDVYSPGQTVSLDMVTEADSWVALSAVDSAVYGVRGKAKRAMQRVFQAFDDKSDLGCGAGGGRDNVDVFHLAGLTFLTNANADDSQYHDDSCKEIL
Sequence of rat C5 protein (P08650 679-1681 limits assumed): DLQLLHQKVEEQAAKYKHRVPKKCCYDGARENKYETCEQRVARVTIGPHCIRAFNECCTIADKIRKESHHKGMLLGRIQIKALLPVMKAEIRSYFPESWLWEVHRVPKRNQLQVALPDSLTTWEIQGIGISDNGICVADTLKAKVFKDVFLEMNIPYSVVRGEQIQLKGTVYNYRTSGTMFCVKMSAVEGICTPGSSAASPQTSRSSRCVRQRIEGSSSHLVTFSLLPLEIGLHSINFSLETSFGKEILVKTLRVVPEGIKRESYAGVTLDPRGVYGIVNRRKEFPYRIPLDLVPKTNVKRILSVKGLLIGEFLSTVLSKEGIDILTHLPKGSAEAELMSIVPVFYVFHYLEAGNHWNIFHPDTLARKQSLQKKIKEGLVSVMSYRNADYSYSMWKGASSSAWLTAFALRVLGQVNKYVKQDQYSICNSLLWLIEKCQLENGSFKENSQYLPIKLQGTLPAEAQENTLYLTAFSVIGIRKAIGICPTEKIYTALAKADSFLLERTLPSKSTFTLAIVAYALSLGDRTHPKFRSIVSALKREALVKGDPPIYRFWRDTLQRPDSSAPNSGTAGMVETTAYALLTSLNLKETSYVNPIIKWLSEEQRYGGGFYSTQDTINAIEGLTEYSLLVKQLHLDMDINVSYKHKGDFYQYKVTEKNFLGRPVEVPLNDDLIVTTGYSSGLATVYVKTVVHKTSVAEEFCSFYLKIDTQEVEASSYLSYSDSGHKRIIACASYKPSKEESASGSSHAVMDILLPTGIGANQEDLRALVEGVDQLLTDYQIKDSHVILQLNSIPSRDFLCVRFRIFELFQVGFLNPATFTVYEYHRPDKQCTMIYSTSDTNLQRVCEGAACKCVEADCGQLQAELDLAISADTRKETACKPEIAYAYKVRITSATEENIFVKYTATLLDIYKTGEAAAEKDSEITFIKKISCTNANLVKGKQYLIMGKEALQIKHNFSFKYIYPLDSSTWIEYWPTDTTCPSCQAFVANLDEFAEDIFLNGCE

Molecule | binding to human C5 (phage ELISA) [1] | Mean Kon [3] | Mean Koff [3] | Specificity [5] | also measured
hC3nb1-K8: hC3nb1 with K8 ultralong CDR-H3 inserted between H74 and H75, displayed on M13 phage (protein, left off: large carriers) VHH: QVQLVETGGGLVQAGGSLRLSCAASGSIFSLNAMGWFRQAPGKEREFVATINRSGGRTYYADSVKGRFTISRDNGTVQQKTHQVCPDGFNWGYGCAAGSSRFCTRHDWCCYDERADSHTYGFCTGNRVTNTYEFHADAKNMVYLQMHSLKPEDTAIYYCAAGTGWSPQTDNEYNYWGQGTQVTVSS | displayed binding to human C5 |  |  |  | 
hC3nb1-K149: hC3nb1 with K149 ultralong CDR-H3 inserted between H74 and H75, displayed on M13 phage (protein, left off: large carriers) VHH: QVQLVETGGGLVQAGGSLRLSCAASGSIFSLNAMGWFRQAPGKEREFVATINRSGGRTYYADSVKGRFTISRDNGTSVLQSTKPQKSCPDGFSYRSWDDFCCPMVGRCLAPRNTYTTEFTIEAKNMVYLQMHSLKPEDTAIYYCAAGTGWSPQTDNEYNYWGQGTQVTVSS | did not bind |  |  |  | binding to human C3 (phage ELISA) [2]: did not bind
hC3nb1-K92: hC3nb1 with K92 ultralong CDR-H3 inserted between H74 and H75, displayed on M13 phage (protein, left off: large carriers) VHH: QVQLVETGGGLVQAGGSLRLSCAASGSIFSLNAMGWFRQAPGKEREFVATINRSGGRTYYADSVKGRFTISRDNGSIVHQKAHTSVTCPEGWSECGVAIYGYECGRWGCGHFLNSGPNISPYVSTHKYEWYVDAKNMVYLQMHSLKPEDTAIYYCAAGTGWSPQTDNEYNYWGQGTQVTVSS | displayed binding to human C5 |  |  |  | 
hC3Nb1 N-Term (protein, left off: a dimerising Fc or GST) VHH: TTVHQRTIKSGCPPGYKSGVDCSPGSECKWGCYAVDGRRYGGYGADSGVGSTYTHEFYVDAWGQGSSSSGSSSSGQVQLVETGGGLVQAGGSLRLSCAASGSIFSLNAMGWFRQAPGKEREFVATINRSGGRTYYADSVKGRFTISRDNGKNMVYLQMHSLKPEDTAIYYCAAGTGWSPQTDNEYNYWGQGTQVTVSS |  | 6.18E+05 | 1.18E−04 |  | 
hC3nb1: camelid VHH which binds C3 and C3b, PDB code 6EHG (protein, left off: a dimerising Fc or GST) VHH: QVQLVETGGGLVQAGGSLRLSCAASGSIFSLNAMGWFRQAPGKEREFVATINRSGGRTYYADSVKGRFTISRDNGKNMVYLQMHSLKPEDTAIYYCAAGTGWSPQTDNEYNYWGQGTQVTVSS | No cross-reactivity to C5 protein was observed |  |  |  | binding to human C3 (phage ELISA) [2]: binding to human C3
hC3nb1-K57: hC3nb1 with K57 ultralong CDR-H3 inserted between H74 and H75, displayed on M13 phage (protein, left off: large carriers) VHH: QVQLVETGGGLVQAGGSLRLSCAASGSIFSLNAMGWFRQAPGKEREFVATINRSGGRTYYADSVKGRFTISRDNGTTVHQRTIKSGCPPGYKSGVDCSPGSECKWGCYAVDGRRYGGYGADSGVGSTYTHEFYVDAKNMVYLQMHSLKPEDTAIYYCAAGTGWSPQTDNEYNYWGQGTQVTVSS | displayed binding to human C5 |  |  |  | 
hC3Nb1Loop2ΔP (protein, left off: a dimerising Fc or GST) VHH: QVQLVETGGGLVQAGGSLRLSCAASGSIFSLNAMGWFRQASGGGSGCPPGYKSGVDCSPGSECKWGCYAVDGRRYGGYGADSGVSGGGSKEREFVATINRSGGRTYYADSVKGRFTISRDNGKNMVYLQMHSLKPEDTAIYYCAAGTGWSPQTDNEYNYWGQGTQVTVSS |  | 1.76E+05 | 1.48E−04 |  | Kd [4]: 1.51 nM; Mean Kon [4]: 7.32E+05; Mean Koff ([4]; in 1/s): 2.01E−04
563 (protein, Anti-C5 ultralong CDR-H3) CDR: TTVHQQTKKQKSCPDGWGHSDDCNCACSANAYACCKRDWLLPGPSCECSTYCVSHTYQWYV |  |  |  | Human | 
564 (protein, Anti-C5 ultralong CDR-H3) CDR: TTVHQHTRKSGSCPDGWSDCHGSCDGVGCTGSDCVRYNARGYGRHACSGYAYTYSYEFYVN |  |  |  | Human | 
hC3Nb1 Loop 2 (protein, left off: a dimerising Fc or GST) VHH: QVQLVETGGGLVQAGGSLRLSCAASGSIFSLNAMGWFRQAPSGGGSGCPPGYKSGVDCSPGSECKWGCYAVDGRRYGGYGADSGVSGGGSKEREFVATINRSGGRTYYADSVKGRFTISRDNGKNMVYLQMHSLKPEDTAIYYCAAGTGWSPQTDNEYNYWGQGTQVTVSS |  | 2.85E+05 | 9.09E−05 |  | 
556 (protein, Anti-C5 ultralong CDR-H3) CDR: TTVHQKTTRVNSCPDGYGYGDGYCYDSGCSASDCYGVDALYSYGHCGCSIYTERPRYEWYVD |  |  |  | Human and Rat | Specificity [6]: Human and Rat
hC3Nb1 C-Term (protein, left off: a dimerising Fc or GST) VHH: QVQLVETGGGLVQAGGSLRLSCAASGSIFSLNAMGWFRQAPGKEREFVATINRSGGRTYYADSVKGRFTISRDNGKNMVYLQMHSLKPEDTAIYYCAAGTGWSPQTDNEYNYWGQGTQVTVSSGGGSGCPPGYKSGVDCSPGSECKWGCYAVDGRRYGGYGADSGV |  | 4.52E+05 | 1.19E−04 |  | 
hC3Nb1 Loop 3 (protein, left off: a dimerising Fc or GST) VHH: QVQLVETGGGLVQAGGSLRLSCAASGSIFSLNAMGWFRQAPGKEREFVATINRSGGRTYYADSVKGSGGGSGCPPGYKSGVDCSPGSECKWGCYAVDGRRYGGYGADSGVSGGGSRFTISRDNGKNMVYLQMHSLKPEDTAIYYCAAGTGWSPQTDNEYNYWGQGTQVTVSS |  | 2.37E+05 | 1.37E−04 |  | 
568 (protein, Anti-C5 ultralong CDR-H3) CDR: TTVVQRTRKIVTCPDGYSYSEGCGKGDDCGGVHCCANGGVTCWYRHCCSTGTDTYSYEWYVD |  |  |  | Human | 
542 (protein, Anti-C5 ultralong CDR-H3) CDR: TTVVQRTHKTTSCPDGYHFIEPCHSGLCWREGACNGDGICANGLGRCRTVSETSTYEFYVN |  |  |  | Human | 

From patent US20240024520A1, “AUTONOMOUS KNOB DOMAIN PEPTIDES” (UCB BIOPHARMA SRL, priority 2020, published 2024)
